The values that follow are results of earlier work, collected in article PMC7708053.

The data set concerns the target T1, hnRNP L (cited Kd) (UniProt P14866).
T1 sequence: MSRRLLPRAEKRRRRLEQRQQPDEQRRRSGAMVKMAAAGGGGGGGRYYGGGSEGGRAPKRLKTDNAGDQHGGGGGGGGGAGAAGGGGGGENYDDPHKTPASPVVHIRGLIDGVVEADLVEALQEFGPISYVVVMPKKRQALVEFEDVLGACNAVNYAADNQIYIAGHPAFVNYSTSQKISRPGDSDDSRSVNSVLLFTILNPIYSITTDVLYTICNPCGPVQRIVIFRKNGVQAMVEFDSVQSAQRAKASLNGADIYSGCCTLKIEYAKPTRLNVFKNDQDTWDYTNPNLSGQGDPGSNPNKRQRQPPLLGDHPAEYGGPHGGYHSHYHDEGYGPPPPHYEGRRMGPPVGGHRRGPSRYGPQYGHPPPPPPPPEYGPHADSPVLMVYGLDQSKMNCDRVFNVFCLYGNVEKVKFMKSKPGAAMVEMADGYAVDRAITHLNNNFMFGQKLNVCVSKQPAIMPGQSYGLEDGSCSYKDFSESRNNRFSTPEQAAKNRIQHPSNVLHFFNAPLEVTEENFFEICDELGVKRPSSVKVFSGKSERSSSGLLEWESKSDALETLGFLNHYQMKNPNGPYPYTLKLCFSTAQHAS
Nature of the data set: not stated (cited). As to conditions: 50 pmol biotinylated RNA on streptavidin beads with HeLa lysate in RIPA (50 mM Tris-Cl pH 7.4, 150 mM NaCl, 5 mM EDTA, 1% NP-40), washed at 300 mM KCl ….

“AUACAUGACACACACACGCA [CA-SELEX#51 20-mer]”: the Kd is 7.2 nM.

What is called Kd is the concentration at which binding is half-saturated.
